Results from publication PMC4256486 (Molecular & Cellular Proteomics : MCP, 2014).

Columns and labels:
[1] = molecular target: Lgr5 (control), ectopically expressed on CHO cells (Homo sapiens (assumed), UniProt O75473); assay: flow cytometry on cells
[2] = molecular target: human ephrin type-A receptor 2 (EphA2), ectopically expressed on CHO cells (Homo sapiens, UniProt P29317); assay: flow cytometry on cells
Sequence of human ephrin type-A receptor 2 (EphA2), ectopically expressed on CHO cells (P29317 24-976): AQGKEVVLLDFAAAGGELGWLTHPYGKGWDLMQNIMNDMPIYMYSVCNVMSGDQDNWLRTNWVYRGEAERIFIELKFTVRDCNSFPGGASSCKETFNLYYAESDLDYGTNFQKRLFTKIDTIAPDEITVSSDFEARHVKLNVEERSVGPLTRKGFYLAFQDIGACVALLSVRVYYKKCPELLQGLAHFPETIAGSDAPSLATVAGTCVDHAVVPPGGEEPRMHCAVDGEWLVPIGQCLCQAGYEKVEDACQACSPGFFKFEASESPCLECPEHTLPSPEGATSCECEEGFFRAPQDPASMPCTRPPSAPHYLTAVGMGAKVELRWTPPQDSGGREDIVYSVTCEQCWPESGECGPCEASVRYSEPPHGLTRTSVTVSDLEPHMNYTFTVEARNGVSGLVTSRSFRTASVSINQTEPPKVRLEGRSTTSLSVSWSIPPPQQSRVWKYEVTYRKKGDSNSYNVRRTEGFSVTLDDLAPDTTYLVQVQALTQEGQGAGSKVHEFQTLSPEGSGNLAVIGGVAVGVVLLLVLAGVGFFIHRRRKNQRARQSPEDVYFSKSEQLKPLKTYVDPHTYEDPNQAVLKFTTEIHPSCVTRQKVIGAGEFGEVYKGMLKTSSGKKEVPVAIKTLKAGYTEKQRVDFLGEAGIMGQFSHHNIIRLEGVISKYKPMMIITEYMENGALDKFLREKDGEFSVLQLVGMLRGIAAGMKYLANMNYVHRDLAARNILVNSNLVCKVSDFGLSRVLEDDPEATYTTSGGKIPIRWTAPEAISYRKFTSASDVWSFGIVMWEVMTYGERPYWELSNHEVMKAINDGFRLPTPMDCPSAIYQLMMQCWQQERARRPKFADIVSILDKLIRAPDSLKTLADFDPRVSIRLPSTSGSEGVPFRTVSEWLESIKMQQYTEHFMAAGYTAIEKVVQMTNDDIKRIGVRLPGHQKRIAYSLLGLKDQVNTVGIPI

Sequence of Lgr5 (control), ectopically expressed on CHO cells (O75473 22-907): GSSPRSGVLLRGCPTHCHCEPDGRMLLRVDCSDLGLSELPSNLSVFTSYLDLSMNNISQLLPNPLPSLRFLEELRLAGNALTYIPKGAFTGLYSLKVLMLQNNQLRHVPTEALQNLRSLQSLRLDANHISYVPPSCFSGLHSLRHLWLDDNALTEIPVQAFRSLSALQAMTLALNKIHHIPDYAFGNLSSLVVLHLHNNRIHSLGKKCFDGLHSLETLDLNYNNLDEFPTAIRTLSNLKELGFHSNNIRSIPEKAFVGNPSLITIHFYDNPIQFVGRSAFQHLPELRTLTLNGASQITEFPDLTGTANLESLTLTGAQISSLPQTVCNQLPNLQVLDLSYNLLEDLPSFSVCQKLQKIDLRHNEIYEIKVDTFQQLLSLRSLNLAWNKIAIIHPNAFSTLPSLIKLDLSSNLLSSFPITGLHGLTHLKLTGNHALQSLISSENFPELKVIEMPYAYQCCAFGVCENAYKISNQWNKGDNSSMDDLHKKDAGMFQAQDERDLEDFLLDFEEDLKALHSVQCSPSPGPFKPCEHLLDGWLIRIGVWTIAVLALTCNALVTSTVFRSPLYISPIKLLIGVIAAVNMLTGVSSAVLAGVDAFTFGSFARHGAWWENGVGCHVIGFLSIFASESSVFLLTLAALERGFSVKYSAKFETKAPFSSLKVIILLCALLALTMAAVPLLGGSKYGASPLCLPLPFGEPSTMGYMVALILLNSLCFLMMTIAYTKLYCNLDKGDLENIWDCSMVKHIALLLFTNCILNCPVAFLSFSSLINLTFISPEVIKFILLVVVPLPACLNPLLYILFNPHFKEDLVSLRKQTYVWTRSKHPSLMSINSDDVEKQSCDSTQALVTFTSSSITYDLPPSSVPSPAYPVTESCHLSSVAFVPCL

B1: IgG HCA-F1 (antibody, V domains shown)
VH: QVQLQESGGGLVQPGGSLRLSCAASGFTFSSYSMNWVRQAPGKGLEWVSYISSSSSTIYYADSVKGRFTISRDNAKNSLYLQMNSLRAEDTAVYYCARYRLPDFWSGYPNYGMDVWGQGTTVTVSS
VL: QSVLTQPPSVSGAPGQRVTISCTGSSSNIGAGYDVHWYQQLPGTAPKLLIYGNSNRPSGVPDRFSGSKSGTSASLAITGLQAEDEADYYCQSYDSSLSGHVVFGGGTKLTVL
B1: no binding [1]; binds [2].
